Sequences and labels used below:
T1: human CAPRIN-1 protein on the cell membrane surface of human cancer cell lines (human, UniProt Q14444 2-709)
T1 sequence (looked up): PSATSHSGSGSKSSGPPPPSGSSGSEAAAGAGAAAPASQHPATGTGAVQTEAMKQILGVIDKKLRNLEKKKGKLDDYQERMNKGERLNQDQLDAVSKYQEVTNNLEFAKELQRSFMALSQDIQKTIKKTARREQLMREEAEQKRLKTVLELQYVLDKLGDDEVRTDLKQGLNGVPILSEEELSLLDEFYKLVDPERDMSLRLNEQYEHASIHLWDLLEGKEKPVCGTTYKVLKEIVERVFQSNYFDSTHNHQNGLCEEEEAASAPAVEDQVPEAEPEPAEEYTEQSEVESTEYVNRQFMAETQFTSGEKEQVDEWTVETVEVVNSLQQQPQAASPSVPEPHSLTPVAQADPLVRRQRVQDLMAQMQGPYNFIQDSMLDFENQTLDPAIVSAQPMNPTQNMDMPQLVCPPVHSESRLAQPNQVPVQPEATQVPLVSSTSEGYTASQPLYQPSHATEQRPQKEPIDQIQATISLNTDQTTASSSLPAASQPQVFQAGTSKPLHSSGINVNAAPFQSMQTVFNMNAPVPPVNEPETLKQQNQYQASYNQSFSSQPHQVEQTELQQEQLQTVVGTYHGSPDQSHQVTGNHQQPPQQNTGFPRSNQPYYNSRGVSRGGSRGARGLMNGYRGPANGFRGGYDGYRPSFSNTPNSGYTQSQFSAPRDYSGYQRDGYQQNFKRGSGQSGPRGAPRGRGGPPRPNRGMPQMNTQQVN

B1: human-mouse chimeric comparative monoclonal antibody 3 (antibody, human IgG1, kappa)
heavy: not shown
light: RTTSHMDSDIQLTQSPASLSASVGETVTITCRASGNIHNYLAWYQQKQGKSPQLLVYNAKTLADGVPSRFSGSGSGTQYSLKINSLQPEDFGSYYCQHFWSTLTFGGGTKLEIKQSDTVAAPSVFIFPPSDEQLKSGTASVVCLLNNFYPREAKVQWKVDNALQSGNSQESVTEQDSKDSTYSLSSTLTLSKADYEKHKVYACEVTHQGLSSPVTKSFNRGEC
B2: human-mouse chimeric comparative monoclonal antibody 1 (antibody)
heavy: not shown
light: DIQMTQSPASLSASVGETVTITCRASGNIHNYLAWYQQKQGKSPQLLVYNAKTLADGVPSRFSGSGSGTQYSLKINSLQPEDFGSYYCQHFWSTLTFGAGTKLELKRTVAAPSVFIFPPSDEQLKSGTASVVCLLNNFYPREAKVQWKVDNALQSGNSQESVTEQDSKDSTYSLSSTLTLSKADYEKHKVYACEVTHQGLSSPVTKSFNRGEC
B3: human-mouse chimeric comparative monoclonal antibody 7 (antibody, human IgG1, kappa, V domains shown)
VH: LQESGAELARPGASVKLSCKASGYTFTSYWMQWVKQRPGQGLEWIGAIYPGDGDTRYTQKFKGKATLTADKSSSTAYMQLSSLASEDSAVYYCARGEYGNYFAYWGQGTTVTVSS
VL: TSDASLGERVTITCKASQDINSYLSWFQQKPGKSPKTLIYRANRLVDGVPSRFSGSGSGQDYSLTISSLEYEDMGIYYCLQYDEFPLTFGGGTKLEIKQ
B4: human-mouse chimeric comparative monoclonal antibody 4 (antibody, human IgG1, kappa, V domains shown)
VH: EVQLHQFGAELVKPGASVKISCKASGYTFTDYNMDWVKQSHGKSLEWIGDINPNYDSTSYNQKFKGKATLTVDKSSSTAYMELRSLTSEDTAVYYCARSRSYDYEGFAYWGQGTLVTVSA
VL: SGDRVSLSCRASQSISNYLHWYQQKSHESPRLLIKYASQSISGIPSRFSGSGSGTDFTLSINSVETEDFGMYFCQQSNSWPYTFGAGTKLEIKQ

Bounds are passed on as bounds.

In this assay the target is T1, human CAPRIN-1 protein on the cell …. Kind of assay: cell-based or functional assay.
For B1, the “cytotoxic activity (ADCC, chromium 51 release) against MCF7, HCT-116, MIAPaCa-2, Caki-2 and QG56” value (“cytotoxic activity” for short) was under 5%.

B2: the “cytotoxic activity” value is under 5%.

Regarding B3, the “cytotoxic activity” value was under 5%.

As for B4, the “cytotoxic activity” value is under 5%.
